In paper PMC11723585 one finds chromatin-bound fraction of DR trajectories (f bound,DR) of RARα^RR-SNAP in Halo-RXRα knock-in U2OS cells and chromatin-bound fraction of PAPA trajectories (f bound,PAPA) of RARα^RR-SNAP in Halo-RXRα knock-in U2OS cells data, which are given here for one substance.

The assay has as its target endogenous knock-in V5-Halo-RXRα (human (endogenous in U2OS)) (UniProt P19793).
Sequence of UniProt P19793 (P19793 whole entry): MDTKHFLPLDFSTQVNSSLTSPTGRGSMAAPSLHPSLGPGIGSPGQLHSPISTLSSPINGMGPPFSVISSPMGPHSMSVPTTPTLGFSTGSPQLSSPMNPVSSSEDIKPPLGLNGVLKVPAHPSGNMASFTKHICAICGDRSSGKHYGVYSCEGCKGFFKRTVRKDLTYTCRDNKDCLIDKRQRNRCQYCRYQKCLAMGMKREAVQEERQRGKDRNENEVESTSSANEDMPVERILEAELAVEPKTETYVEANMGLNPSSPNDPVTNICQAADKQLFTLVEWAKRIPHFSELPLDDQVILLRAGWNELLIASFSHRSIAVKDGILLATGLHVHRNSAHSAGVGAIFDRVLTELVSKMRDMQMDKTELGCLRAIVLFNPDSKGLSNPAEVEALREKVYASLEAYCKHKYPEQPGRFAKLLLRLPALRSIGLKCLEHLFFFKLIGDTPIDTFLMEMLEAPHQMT

Substance “RARα^RR-SNAPf-3xFLAG (from UniProt P10276 1-462) (natural protein)” displayed a chromatin-bound fraction of DR trajectories (f bound,DR) of RARα^RR-SNAP in Halo-RXRα knock-in U2OS cells of 7.5% and a chromatin-bound fraction of PAPA trajectories (f bound,PAPA) of RARα^RR-SNAP in Halo-RXRα knock-in U2OS cells of 11.1%.
